Key:
[1] = biological target: binding of FAM19A5 protein to full-length ectodomain of the LRRC4B protein (amino acids 36-576 of SEQ ID NO: 2) (Homo sapiens, UniProt Q7Z5A7); experiment: Competitive inhibition assay, plate coated with full-length ectodomain of LRRC4B (amino acids 36-576); conditions: for inhibition of interaction between FAM19A5 and the coated LRRC4B protein fragments (in words): statement covers both coats, LRRC4B (36-576) and LRRC4B (453-576)
Experimental: Next, to further assess the role that the binding domain of the LRRC4B protein has on the interaction between FAM19A5 protein and members of the LRRC4 protein family, a competitive inhibition assay was used to determine whether different LRRC4B deletion constructs from Example 2 could inhibit the binding of FAM19A5 to the full-length ectodomain of the LRRC4B protein (i.e., amino acids 36-576 of SEQ ID NO: 2; SEQ ID NO: 5). Briefly, 100 nM of the full-length ectodomain of the LRRC4B protein was used to coat a plate, and then recombinant FAM19A5 protein (5 ng/mL) was added to the plate in combination with the following LRRC4B deletion constructs (increasing concentrations): (1) LRRC4B (453-576) (i.e., construct #11 in Table 6); (2) LRRC4B (453-576) mutant (comprises alanine substitutions at positions 488 and 489 of SEQ ID NO: 2; SEQ ID NO: 16); (3) LRRC4B (484-576) (i.e., construct #12 in Table 6); (4) LRRC4B (482-576); (5) LRRC4B (482-497); and (6) LRRC4B (498-576). The plates were incubated at 37° C., and then, the amount of FAM19A5 bound to the coated LRRC4B ectodomain protein was measured using HRP-conjugated anti-FAM19A5 (1-65) antibody.
As described in Example 3, there appeared to be much similarity in the binding domains of the different members of the LRRC4 family. […] Then, recombinant FAM19A5 protein (5 ng/mL) was added in combination with one of the following: (i) LRRC4B (484-576) protein fragment, (ii) LRRC4B (453-576, AA) protein fragment, and (iii) synthetic FB-20 peptide. The plates were incubated at 37° C., and then, the amount of FAM19A5 protein bound to the coated LRRC4, LRRC4B, or LRRC4C proteins was measured using anti-FAM19A5 (1-65) antibody.
(§1) Next, to assess whether polypeptides comprising the binding domains of LRRC4 or LRRC4C proteins can have similar inhibitory effects on LRRC4B protein binding, the following synthetic peptides were constructed: (1) FBC4-23 (contains the binding domain of the LRRC4 protein, i.e., YSFFTTVTVETTE); and (2) FBC4C-23 (contains the binding domain of the LRRC4C protein, i.e., FSYFSTVTVETME). Then, the ability of the peptides to inhibit the binding of LRRC4 protein family members to FAM19A5 protein was assessed using a competitive inhibition assay. Briefly, plates were coated with 100 nM of either LRRC4B protein fragment #1 (amino acids 36-576 of SEQ ID NO: 2; SEQ ID NO: 5) or LRRC4B protein fragment #2 (amino acids 453-576 of SEQ ID NO: 2; SEQ ID NO: 7). Then, recombinant FAM19A5 protein (5 ng/ml for plates coated with LRRC4B fragment #1; and 1 ng/mL for plates coated with LRRC4B fragment #2) was added to the plates in combination with 20 nM of the FBC4-23, FBC4C-23, and FB-20 peptides. The plates were incubated at 37° C. and then, the amount of FAM19A5 protein bound to the coated LRRC4B protein fragments was assessed using HRP-conjugated anti-FAM19A5 (1-65) antibody.
Next, to determine the minimal sequence required to inhibit the interaction of FAM19A5 and members of the LRRC4 protein family, ten FB-20 peptide variants were constructed by serially deleting one or more amino acids from the N-terminus or C-terminus of the FB-20 peptide. Then, a competitive inhibition assay was used to assess the ability of the different FB-20 peptide variants to inhibit the interaction between FAM19A5 and LRRC4B protein. Again, plates were coated with 100 nM of either LRRC4B protein fragment #1 (amino acids 36-576 of SEQ ID NO: 2; SEQ ID NO: 5) or LRRC4B protein fragment #2 (amino acids 453-576 of SEQ ID NO: 2; SEQ ID NO: 7). Then, recombinant FAM19A5 protein (5 ng/ml for plates coated with LRRC4B fragment #1; and 1 ng/mL for plates coated with LRRC4B fragment #2) was added to the plates in combination with 20 nM of the different peptides described above. After incubating the plates at 37° C., the amount of FAM19A5 protein bound to the coated LRRC4B protein fragments was assessed using HRP-conjugated anti-FAM19A5 (1-65) antibody. […]

[2] = biological target: binding of FAM19A5 protein to LRRC4B (amino acids 453-576)-hFc (Homo sapiens, UniProt Q7Z5A7); experiment: Competitive inhibition assay, plate coated with LRRC4B (amino acids 453-576)-hFc, peptides at 20 nM
Text: as §1
Next, to determine the minimal sequence required to inhibit the interaction of FAM19A5 and members of the LRRC4 protein family, ten FB-20 peptide variants were constructed by serially deleting one or more amino acids from the N-terminus or C-terminus of the FB-20 peptide. Then, a competitive inhibition assay was used to assess the ability of the different FB-20 peptide variants to inhibit the interaction between FAM19A5 and LRRC4B protein. Again, plates were coated with 100 nM of either LRRC4B protein fragment #1 (amino acids 36-576 of SEQ ID NO: 2; SEQ ID NO: 5) or LRRC4B protein fragment #2 (amino acids 453-576 of SEQ ID NO: 2; SEQ ID NO: 7). Then, recombinant FAM19A5 protein (5 ng/ml for plates coated with LRRC4B fragment #1; and 1 ng/mL for plates coated with LRRC4B fragment #2) was added to the plates in combination with 20 nM of the different peptides described above. After incubating the plates at 37° C., the amount of FAM19A5 protein bound to the coated LRRC4B protein fragments was assessed using HRP-conjugated anti-FAM19A5 (1-65) antibody.
To identify the critical amino acid residues, multiple FB-20 peptide mutants were constructed, in which the individual residues of the core binding domain (i.e., YTYFTTVTVETLE; SEQ ID NO: 15) were substituted with alanine (A) or asparagine (N). Then, the ability of these FB-20 peptide mutants to inhibit the interaction between LRRC4B and FAM19A5 proteins was assessed, as described in Examples 3 and 4.

[3] = biological target: T1, FAM19A5 protein (Homo sapiens, UniProt Q7Z5A7); experiment: competitive inhibition ELISA; competitor: coated LRRC4B(36-576)-hFc
[4] = biological target: T1, FAM19A5 protein; experiment: competitive inhibition ELISA; competitor: coated LRRC4B(453-576)-hFc
[5] = Table 9, deletion variants, 20 nM peptide, FAM19A5 5 ng/ml
[6] = Table 9, deletion variants, 20 nM peptide, FAM19A5 1 ng/mL
[7] = Table 10, alanine/asparagine mutants

Sequence of binding of FAM19A5 protein to LRRC4B (amino acids 453-576)-hFc (Q7Z5A7 44-132): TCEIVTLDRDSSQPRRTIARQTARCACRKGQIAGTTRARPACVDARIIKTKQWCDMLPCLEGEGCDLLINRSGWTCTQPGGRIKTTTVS
Sequence of binding of FAM19A5 protein to full-length ectodomain of the LRRC4B protein (amino acids 36-576 of SEQ ID NO: 2) (Q7Z5A7 44-132): as above

Inhibition rate (%) [3] [%] | Inhibition rate (%) [4] [%] | Molecule | further results
5.9 | 0 | GYTAFTTVTVETLETQPGEE [FB-20[A3]] | 
11.9 | 3.1 | GNTYFTTVTVETLETQPGEE [FB-20[N1]] | 
-1.3 | 2.5 | GYTYNTTVTVETLETQPGEE [FB-20[N4]] | 
17.2 | 3.6 | GATYFTTVTVETLETQPGEE [FB-20[A1]] | 
-11.4 | -0.4 | GYTYFTNVTVETLETQPGEE [FB-20[N6]] | 
2.9 | -2.4 | GYTYFTTVNVETLETQPGEE [FB-20[N8]] | 
17.5 | 6.5 | GYTYFTTVTNETLETQPGEE [FB-20[N9]] | 
1 | -0.4 | GYAYFTTVTVETLETQPGEE [FB-20[A2]] | 

Further lines, the molecule ahead of its results:

Molecule | Inhibition rate (%) [3] [%] | Inhibition rate (%) [4] [%] | further results
KNYTYFTTNKETQ [FB-m6dC] |  |  | inhibition of interaction between FAM19A5 and the coated LRRC4B protein fragments (in words) ([1]; 20 nM peptide): failed to significantly inhibit; Inhibition rate (%) LRRC4B (amino acids 36-576)-hFc [1, 5]: 14.9%; Inhibition rate (%) LRRC4B (amino acids 453-576)-hFc [2, 6]: 5.5%
GYTYFTTVAVETLETQPGEE [FB-20[A8]] |  |  | Inhibition rate (%) LRRC4B (amino acids 36-576)-hFc [1, 7]: 3.9%; Inhibition rate (%) LRRC4B (amino acids 453-576)-hFc [2, 7]: −0.4%
KNYTYFTTVTNKETQ [FB-m8dC] |  |  | inhibition of interaction between FAM19A5 and the coated LRRC4B protein fragments (in words) ([1]; 20 nM peptide): failed to significantly inhibit; Inhibition rate (%) LRRC4B (amino acids 36-576)-hFc [1, 5]: 5.1%; Inhibition rate (%) LRRC4B (amino acids 453-576)-hFc [2, 6]: −0.9%
GYTAFTTVTVETLETQPGEE [FB-20[A3]] |  |  | Inhibition rate (%) LRRC4B (amino acids 36-576)-hFc [1, 7]: 5.9%; Inhibition rate (%) LRRC4B (amino acids 453-576)-hFc [2, 7]: 0.0%
GYTYFTTVTVNTLETQPGEE [FB-20[N10]] |  |  | Inhibition rate (%) LRRC4B (amino acids 36-576)-hFc [1, 7]: 27.0%; Inhibition rate (%) LRRC4B (amino acids 453-576)-hFc [2, 7]: 10.8%
GYAYFTTVTVETLETQPGEE [FB-20[A2]] |  |  | Inhibition rate (%) LRRC4B (amino acids 36-576)-hFc [1, 7]: 1.0%; Inhibition rate (%) LRRC4B (amino acids 453-576)-hFc [2, 7]: −0.4%
GYTYFATVTVETLETQPGEE [FB-20[A5]] |  |  | Inhibition rate (%) LRRC4B (amino acids 36-576)-hFc [1, 7]: 53.4%; Inhibition rate (%) LRRC4B (amino acids 453-576)-hFc [2, 7]: 22.2%
KNTTVTVETNKETQ [FB-m7dN] |  |  | inhibition of interaction between FAM19A5 and the coated LRRC4B protein fragments (in words) ([1]; 20 nM peptide): failed to significantly inhibit; Inhibition rate (%) LRRC4B (amino acids 36-576)-hFc [1, 5]: 2.0%; Inhibition rate (%) LRRC4B (amino acids 453-576)-hFc [2, 6]: −1.8%
GYTYFTTNTVETLETQPGEE [FB-20[N7]] | 24.5 | 8.3 | 
GYTYATTVTVETLETQPGEE [FB-20[A4]] | 2.7 | 1.5 | 
GYTYFTTVTVENLETQPGEE [FB-20[N11]] | 74.1 | 55.6 | 
GYTYFTTVTVNTLETQPGEE [FB-20[N10]] | 27 | 10.8 | 
GYNYFTTVTVETLETQPGEE [FB-20[N2]] | -0.7 | -2 | 
GYTYFNTVTVETLETQPGEE [FB-20[N5]] | 56.1 | 30.5 | 
GYTNFTTVTVETLETQPGEE [FB-20[N3]] | -5 | 4 | 
